{"source": "paper PMC10117725", "about": "“From an Hsp90 - binding protein to a peptide drug” (microLife, 2022)", "molecules": {"B1": {"name": "Lpl1: model Lpl lipoprotein of S. aureus, parent protein of the peptides (protein)", "chain": "CGKGNETKEDSKEEQIKKSFAITLDMYPIKNLEDLYDKEGYRDSEFKKGDKGMWTIYTDFAKSNKPGELDDEGMVLNLDRNTRTAKGHYFVTTFYRNGKLPDEKNYKIEMKNNKIILLDEVKDDKLKQKIENFKFFGQYANLKELRKYNNGDVSINENVPSYDVEYKMSNKDEIVKELRSRYNISTEKSPILKMHIDGDLKGSSVGYRKLEIDFSKRENSKLSVIEFLSYKPAKK", "modifications": "left off: His tag, end not stated, kept", "notes": "model Lpl lipoprotein of S. aureus, parent protein of the peptides"}}, "biological_target": "T1, Hsp90α (Homo sapiens, UniProt P07900)", "T1 construct": "purchased Abcam", "type": "binding", "conditions": "dot blot, 2 µg blotted on membrane, 20 µg recombinant Hsp90α at 4°C overnight, α-Hsp90α immunodetection", "protocol": "Two µg of each peptide was blotted (dot blot) directly on PDV nitrocellulose membrane and blocked with ROTI®Block (Carl Roth, Germany). After washing, the membrane was then incubated with 20 μg of recombinant Hsp90α (Abcam)/Lpl1-his protein at 4°C overnight. In case of interaction studies with Hsp90α, α-Hsp90α (produced in mouse, Abcam) was used as the primary antibody and for interaction studies with Lpl1-his, Anti-6X His tag antibody (also produced in mouse, Sigma-Aldrich, Germany) was used. Alkaline phosphatase conjugated goat-α-mouse IgG (Sigma-Aldrich, Germany) served as the secondary antibody. Detection was done using BCIP®/NBT solution (Sigma, Germany). Lpl1-his was isolated and purified as described in our previous paper (Tribelli et al. [2020]).", "data": [{"molecule": "B1", "values": [{"measurement": "Interaction with Hsp90α", "result": "Yes"}]}]}
